Target: T1, human Hsc70 (Homo sapiens, UniProt P11142)
T1 construct: made in house; host or cells: E. coli
Assay: Percent complexation of peptides with Hsc70 by size exclusion chromatography
Assay type: binding
Conditions: 60 minutes at 30° C., SEC, 214 nm; for Percent complexation of peptides with Hsc70, 0.25:1: peptide:Hsc70 molar ratio 0.25:1; for Percent complexation of peptides with Hsc70, 0.5:1: peptide:Hsc70 molar ratio 0.5:1; for Percent complexation of peptides with Hsc70, 1:1: peptide:Hsc70 molar ratio 1:1; for Percent complexation of peptides with Hsc70, 2:1: peptide:Hsc70 molar ratio 2:1; for Percent complexation of peptides with Hsc70, 4:1: peptide:Hsc70 molar ratio 4:1
Description: In a separate experiment, further variants of the peptide NLLRLTG (SEQ ID NO: 70) were generated and the ability of these peptides to form a peptide-Hsc70 complex was analyzed. Peptides were again synthesized using standard Fmoc solid-phase chemical synthesis, as described above. Individual peptides were solubilized in pH adjusted water at a concentration of 250 μM, and spiked with polysorbate 20 to a final concentration of 0.1%. To form a peptide-Hsc70 complex, Hsc70 (1 mg/ml, 0.1% polysorbate) was mixed with peptide at peptide:Hsc70 molar ratios of, 0.25:1, 0.5:1, 1:1, 2:1, and 4:1, for 60 minutes at 30° C. Following incubation, samples were cooled for 5 minutes at room temperature and transferred to HPLC vials for analysis. To evaluate the quantity of the complex in the solution, 20 μl (10 μg) of the sample was loaded on a size exclusion chromatography column TSKgel SuperSW3000 (Tosoh Bioscience) at a flow rate of 0.2 ml/min with 1×PBS as a running buffer. The data was collected by measuring the absorbance at 214 nm.
The percent of Hsc70 bound to peptide was calculated by SEC. As shown in the SEC chromatogram depicted in FIG. 1, recombinant human heat shock cognate 71 kDa protein (Hsc70) appeared as monomer (M), dimer (D), trimer (T), and higher order high molecular weight (HMW) oligomeric species when subjected to SEC chromatography. Resolution and evaluation of the extent to which peptide-Hsc70 complex was formed with a given peptide or peptide mixture was complicated by the close elution of a complex of Hsc70 monomer with peptide (Msh). The peaks corresponding to monomer and complex overlap and were not fully resolved by conventional SEC media. In order to more accurately calculate the extent of complex formation, the following data analytical method was used. […] Peak area integrations of these protein species were well resolved from the complex and monomer. Further, the extent to which complex was formed appeared to be […] to the extent to which trimer and dimer were recruited to complex formation. Because of this observation, changes in trimer and dimer reflected the extent to which monomer was recruited to the formation of complex. Thus, the progression of changes in the level of trimer and dimer was used to calculate expected changes in the peak areas of overlapping complex and monomer species, and these calculated peak areas were used to calculate net formation of complex.
Terms used for various chromatographic fractions include: High Molecular Weight (HMW), Trimer and other mid-order oligomer (T), Dimer (D), Complex (C), Monomer shoulder (Msh), and Monomer (M) (see FIG. 1). Peak areas of the various fractions were extracted from SEC data and the percentage of peptide-Hsc70 complex formation was calculated using the following set of equations: % Complex=(AREAcomplex/AREATotal)×100 AREAcomplex=AREATotal−(AreaT+D+AreaMshx+AreaMx) AREATotal=AREAT+D,C,Msh,M+(AREAHDw-x−AREAHDW-0) AREAMshx=AREAMsh0×(AREA(T+D)x)/(AREA(T+D)0) AREAMx=AREAM0×(AREA(T+D)x)/(AREA(T+D)0)
AREATotal is the sum of total integrated peak areas from trimer/oligomer region through the monomer peak and excludes the initial HMW peak area but includes the excess increase of the HMW peak area that was observed when peptide was added. The HMW peak was excluded from the complexation calculation on the basis that it was aggregated protein that was not functional for complexation. This correction took into account AreaTotal factors in the minor increase in HMW area, adding it back to base total area used to calculate area of complex.
The foregoing method was applied to the SEC chromatogram for each complexation reaction by applying vertical lines to the chromatogram to produce HMW, T, C, D, and M segments (as shown in FIG. 1), calculating the area under the curve for of each of the indicated HMW, T, C, D, and M segments, and inputting the values into the equations described above.

T1 sequence (P11142 whole entry): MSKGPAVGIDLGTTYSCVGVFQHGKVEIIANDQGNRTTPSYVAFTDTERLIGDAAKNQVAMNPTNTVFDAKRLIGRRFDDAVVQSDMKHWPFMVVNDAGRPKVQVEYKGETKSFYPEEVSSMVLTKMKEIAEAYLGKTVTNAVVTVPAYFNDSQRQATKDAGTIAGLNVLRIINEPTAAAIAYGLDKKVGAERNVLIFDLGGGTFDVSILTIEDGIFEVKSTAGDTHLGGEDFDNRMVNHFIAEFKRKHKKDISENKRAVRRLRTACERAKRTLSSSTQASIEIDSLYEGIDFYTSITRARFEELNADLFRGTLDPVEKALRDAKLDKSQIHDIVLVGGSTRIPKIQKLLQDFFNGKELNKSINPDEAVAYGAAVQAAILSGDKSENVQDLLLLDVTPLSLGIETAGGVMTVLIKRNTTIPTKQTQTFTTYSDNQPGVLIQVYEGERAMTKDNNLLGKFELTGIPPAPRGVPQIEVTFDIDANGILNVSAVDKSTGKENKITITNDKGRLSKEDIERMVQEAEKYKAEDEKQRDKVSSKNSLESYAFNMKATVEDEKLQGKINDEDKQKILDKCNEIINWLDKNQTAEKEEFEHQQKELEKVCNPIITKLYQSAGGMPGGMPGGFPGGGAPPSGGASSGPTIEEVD

| Sequence | Percent complexation of peptides with Hsc70, 0.25:1 | Percent complexation of peptides with Hsc70, 0.5:1 | Percent complexation of peptides with Hsc70, 1:1 | Percent complexation of peptides with Hsc70, 2:1 | Percent complexation of peptides with Hsc70, 4:1 |
| --- | --- | --- | --- | --- | --- |
| FFRKFWLRLTW [PEP008] | 24.4% | 38.3% | 61.8% | 79.1% | 81.6% |
| FFRKNFLRLTF [PEP027] | 19.1% | 49.0% | 77.0% | 85.6% | 90.0% |
| FFRKNLLRLTG [PEP001, reference compound] | 23.4% | 44.7% | 68.1% | 82.5% | 90.1% |
| FFRKNLLRLTW [PEP155] | 22.5% | 48.1% | 75.6% | 82.9% | 86.6% |
| FFRKNLLRWTG [PEP004] | 15.4% | 29.0% | 46.8% | 62.5% | 75.3% |
| FFRKNRLLLTG [PEP002] | 19.2% | 32.0% | 48.7% | 64.8% | 78.8% |
| FFRKNRLWLTG [PEP005] | 16.0% | 32.7% | 54.8% | 67.6% | 77.6% |
| FFRKNWIRITW [PEP013] | 25.6% | 48.3% | 69.6% | 81.9% | 87.7% |
| FFRKNWLKLKW [PEP055] | 24.1% | 52.2% | 75.9% | 83.7% | 86.3% |
| FFRKNWLKLRW [PEP057] | 24.9% | 50.0% | 72.2% | 82.8% | 88.3% |
| FFRKNWLKLTW [PEP012] | 29.9% | 58.2% | 79.2% | 86.2% | 89.5% |
| FFRKNWLKLWK [PEP058] | 22.7% | 43.5% | 66.5% | 78.8% | 83.9% |
| FFRKNWLLLTW [PEP003] | 26.8% | 45.6% | 67.2% | 81.3% | 87.6% |
| FFRKNWLRLFW [PEP010] | 19.1% | 42.2% | 64.9% | 79.3% | 86.5% |
| FFRKNWLRLKW [PEP011] | 31.2% | 58.2% | 81.6% | 87.8% | 90.4% |
| FFRKNWLRLLW [PEP009] | 32.8% | 63.5% | 81.0% | 85.3% | 89.0% |
| FFRKQWLRLTW [PEP014] | 29.3% | 54.4% | 80.9% | 88.1% | 90.3% |
| FRNWLRLTW [PEP028] | 24.0% | 46.4% | 75.6% | 84.1% | 87.5% |

Reference: patent US11065317B2, “Heat shock protein-binding peptide compositions and methods of use thereof” (Agenus Inc., priority 2018, dated 2021)
